Legend:
[1] = target: human recombinant CD64 (Fc gamma receptor I), R&D Systems (human) (UniProt P12314); test: SPR (Biacore T200), construct captured on Protein A, soluble CD64 as analyte
[2] = target: FcγRIIaH131 (cell surface CD32a, cells bearing the labeled receptor, TR-FRET) (UniProt P12318); test: TR-FRET competition (CisBio) on cells bearing the labeled receptor; competitor: labeled antibody
[3] = target: FcγRIIIaV158 (on cells bearing the labeled receptor, TR-FRET) (UniProt P08637); test: as above
Sequence of FcγRIIIaV158 (on cells bearing the labeled receptor, TR-FRET) (P08637 17-254 F176V): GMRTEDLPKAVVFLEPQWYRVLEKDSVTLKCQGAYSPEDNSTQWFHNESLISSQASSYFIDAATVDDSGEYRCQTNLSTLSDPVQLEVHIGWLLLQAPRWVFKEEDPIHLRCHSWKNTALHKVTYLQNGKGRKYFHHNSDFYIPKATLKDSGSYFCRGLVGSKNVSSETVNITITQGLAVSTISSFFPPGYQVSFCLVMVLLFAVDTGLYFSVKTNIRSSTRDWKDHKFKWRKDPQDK

[4] = target: FcγRIIb (on cells bearing the labeled receptor, TR-FRET) (UniProt P31994); test: as above
Sequence of FcγRIIb (on cells bearing the labeled receptor, TR-FRET) (P31994 43-310 limits assumed): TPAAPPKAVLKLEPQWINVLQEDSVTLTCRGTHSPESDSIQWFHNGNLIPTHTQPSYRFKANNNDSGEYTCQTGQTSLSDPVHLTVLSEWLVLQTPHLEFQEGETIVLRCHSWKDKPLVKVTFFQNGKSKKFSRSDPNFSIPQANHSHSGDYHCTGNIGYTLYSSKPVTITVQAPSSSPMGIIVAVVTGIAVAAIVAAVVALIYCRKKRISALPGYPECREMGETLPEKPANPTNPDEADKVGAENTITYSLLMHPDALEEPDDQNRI

Sequence of FcγRIIaH131 (cell surface CD32a, cells bearing the labeled receptor, TR-FRET) (P12318 34-317): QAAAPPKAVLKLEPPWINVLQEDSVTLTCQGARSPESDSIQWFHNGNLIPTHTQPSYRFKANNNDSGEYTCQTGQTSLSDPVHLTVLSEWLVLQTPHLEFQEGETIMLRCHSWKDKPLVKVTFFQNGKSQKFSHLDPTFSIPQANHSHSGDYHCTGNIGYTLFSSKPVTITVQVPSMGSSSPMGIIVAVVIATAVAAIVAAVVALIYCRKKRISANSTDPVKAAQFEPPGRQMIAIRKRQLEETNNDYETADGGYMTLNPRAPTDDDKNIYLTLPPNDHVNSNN
Sequence of human recombinant CD64 (Fc gamma receptor I), R&D Systems (human) (P12314 16-288 limits assumed): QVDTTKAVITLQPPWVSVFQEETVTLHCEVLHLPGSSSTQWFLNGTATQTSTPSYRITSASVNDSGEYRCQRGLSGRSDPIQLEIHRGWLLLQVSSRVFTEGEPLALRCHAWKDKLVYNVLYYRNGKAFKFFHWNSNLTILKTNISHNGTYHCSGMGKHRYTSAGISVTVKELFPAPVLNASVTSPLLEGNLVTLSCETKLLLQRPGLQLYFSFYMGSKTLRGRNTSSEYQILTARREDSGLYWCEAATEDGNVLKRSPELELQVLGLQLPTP

CD64 Valency by SPR [1]: 1.5
IC50 [2]: 1.27 µM
IC50 [3]: 0.428 µM
IC50 [4]: 3.29 µM
Substance: anti-CD20 mAb (CDRs from Gazyva (obinutuzumab)) (antibody)

Reference: patent US20210269546A1
